# Measured values from US12679878B2, “CRF2 receptor agonists and their use in therapy” (SANOFI, priority 2020, dated 2026).
# Starred links: 1 amine or outer side, 2 acyl side, 3 side chain; linkers in the order of their positions; H or OH if unused. Non-standard residues stand in square brackets, D forms with d. Groups on a side chain read outwards from the residue. No end group written: not given here. *: point of attachment. C18 diacid = O=C(O)CCCCCCCCCCCCCCCCC(=O)*; γGlu = O=C(O)[C@H](CCC(=O)[*:2])N[*:1]; Palmitoyl = CCCCCCCCCCCCCCCC(=O)*; AEEA = NCCOCCOCC(=O)O; Aib = CC(C)(N)C(=O)O
# B1: SEQ ID NO: 33 (peptide)
# peptide: IVLSLD[dV]PTKLK([γGlu-Palmitoyl])QKLLKQERQRKEREQAEKNTRILERV-NH2
# modifications: N-terminus assumed
# SMILES: CCCCCCCCCCCCCCCC(=O)N[C@@H](CCC(=O)NCCCC[C@H](NC(=O)[C@H](CC(C)C)NC(=O)[C@H](CCCCN)NC(=O)[C@@H](NC(=O)[C@@H]1CCCN1C(=O)[C@H](NC(=O)[C@H](CC(=O)O)NC(=O)[C@H](CC(C)C)NC(=O)[C@H](CO)NC(=O)[C@H](CC(C)C)NC(=O)[C@@H](NC(=O)[C@@H](N)[C@@H](C)CC)C(C)C)C(C)C)[C@@H](C)O)C(=O)N[C@@H](CCC(N)=O)C(=O)N[C@@H](CCCCN)C(=O)N[C@@H](CC(C)C)C(=O)N[C@@H](CC(C)C)C(=O)N[C@@H](CCCCN)C(=O)N[C@@H](CCC(N)=O)C(=O)N[C@@H](CCC(=O)O)C(=O)N[C@@H](CCCNC(=N)N)C(=O)N[C@@H](CCC(N)=O)C(=O)N[C@@H](CCCNC(=N)N)C(=O)N[C@@H](CCCCN)C(=O)N[C@@H](CCC(=O)O)C(=O)N[C@@H](CCCNC(=N)N)C(=O)N[C@@H](CCC(=O)O)C(=O)N[C@@H](CCC(N)=O)C(=O)N[C@@H](C)C(=O)N[C@@H](CCC(=O)O)C(=O)N[C@@H](CCCCN)C(=O)N[C@@H](CC(N)=O)C(=O)N[C@H](C(=O)N[C@@H](CCCNC(=N)N)C(=O)N[C@H](C(=O)N[C@@H](CC(C)C)C(=O)N[C@@H](CCC(=O)O)C(=O)N[C@@H](CCCNC(=N)N)C(=O)N[C@H](C(N)=O)C(C)C)[C@@H](C)CC)[C@@H](C)O)C(=O)O
# B2: SEQ ID NO: 29 (peptide)
# peptide: IVLSLD[dV]PTKLK([γGlu-Palmitoyl])KKLLKQERKRKERE[Aib]AEKAARILERV-NH2
# modifications: N-terminus assumed
# SMILES: CCCCCCCCCCCCCCCC(=O)N[C@@H](CCC(=O)NCCCC[C@H](NC(=O)[C@H](CC(C)C)NC(=O)[C@H](CCCCN)NC(=O)[C@@H](NC(=O)[C@@H]1CCCN1C(=O)[C@H](NC(=O)[C@H](CC(=O)O)NC(=O)[C@H](CC(C)C)NC(=O)[C@H](CO)NC(=O)[C@H](CC(C)C)NC(=O)[C@@H](NC(=O)[C@@H](N)[C@@H](C)CC)C(C)C)C(C)C)[C@@H](C)O)C(=O)N[C@@H](CCCCN)C(=O)N[C@@H](CCCCN)C(=O)N[C@@H](CC(C)C)C(=O)N[C@@H](CC(C)C)C(=O)N[C@@H](CCCCN)C(=O)N[C@@H](CCC(N)=O)C(=O)N[C@@H](CCC(=O)O)C(=O)N[C@@H](CCCNC(=N)N)C(=O)N[C@@H](CCCCN)C(=O)N[C@@H](CCCNC(=N)N)C(=O)N[C@@H](CCCCN)C(=O)N[C@@H](CCC(=O)O)C(=O)N[C@@H](CCCNC(=N)N)C(=O)N[C@@H](CCC(=O)O)C(=O)NC(C)(C)C(=O)N[C@@H](C)C(=O)N[C@@H](CCC(=O)O)C(=O)N[C@@H](CCCCN)C(=O)N[C@@H](C)C(=O)N[C@@H](C)C(=O)N[C@@H](CCCNC(=N)N)C(=O)N[C@H](C(=O)N[C@@H](CC(C)C)C(=O)N[C@@H](CCC(=O)O)C(=O)N[C@@H](CCCNC(=N)N)C(=O)N[C@H](C(N)=O)C(C)C)[C@@H](C)CC)C(=O)O
# B3: SEQ ID NO: 28 (peptide)
# peptide: IVLSLD[dV]PTKLK([γGlu-Palmitoyl])KKLLKQERKRKEREKAEKAARILERV-NH2
# modifications: N-terminus assumed
# SMILES: CCCCCCCCCCCCCCCC(=O)N[C@@H](CCC(=O)NCCCC[C@H](NC(=O)[C@H](CC(C)C)NC(=O)[C@H](CCCCN)NC(=O)[C@@H](NC(=O)[C@@H]1CCCN1C(=O)[C@H](NC(=O)[C@H](CC(=O)O)NC(=O)[C@H](CC(C)C)NC(=O)[C@H](CO)NC(=O)[C@H](CC(C)C)NC(=O)[C@@H](NC(=O)[C@@H](N)[C@@H](C)CC)C(C)C)C(C)C)[C@@H](C)O)C(=O)N[C@@H](CCCCN)C(=O)N[C@@H](CCCCN)C(=O)N[C@@H](CC(C)C)C(=O)N[C@@H](CC(C)C)C(=O)N[C@@H](CCCCN)C(=O)N[C@@H](CCC(N)=O)C(=O)N[C@@H](CCC(=O)O)C(=O)N[C@@H](CCCNC(=N)N)C(=O)N[C@@H](CCCCN)C(=O)N[C@@H](CCCNC(=N)N)C(=O)N[C@@H](CCCCN)C(=O)N[C@@H](CCC(=O)O)C(=O)N[C@@H](CCCNC(=N)N)C(=O)N[C@@H](CCC(=O)O)C(=O)N[C@@H](CCCCN)C(=O)N[C@@H](C)C(=O)N[C@@H](CCC(=O)O)C(=O)N[C@@H](CCCCN)C(=O)N[C@@H](C)C(=O)N[C@@H](C)C(=O)N[C@@H](CCCNC(=N)N)C(=O)N[C@H](C(=O)N[C@@H](CC(C)C)C(=O)N[C@@H](CCC(=O)O)C(=O)N[C@@H](CCCNC(=N)N)C(=O)N[C@H](C(N)=O)C(C)C)[C@@H](C)CC)C(=O)O
# B4: SEQ ID NO: 31 (peptide)
# peptide: IVLSLD[dV]PTKLK([γGlu-Palmitoyl])QKLLKQERQRKEREQAEKN[Aib]RILERV-NH2
# modifications: N-terminus assumed
# SMILES: CCCCCCCCCCCCCCCC(=O)N[C@@H](CCC(=O)NCCCC[C@H](NC(=O)[C@H](CC(C)C)NC(=O)[C@H](CCCCN)NC(=O)[C@@H](NC(=O)[C@@H]1CCCN1C(=O)[C@H](NC(=O)[C@H](CC(=O)O)NC(=O)[C@H](CC(C)C)NC(=O)[C@H](CO)NC(=O)[C@H](CC(C)C)NC(=O)[C@@H](NC(=O)[C@@H](N)[C@@H](C)CC)C(C)C)C(C)C)[C@@H](C)O)C(=O)N[C@@H](CCC(N)=O)C(=O)N[C@@H](CCCCN)C(=O)N[C@@H](CC(C)C)C(=O)N[C@@H](CC(C)C)C(=O)N[C@@H](CCCCN)C(=O)N[C@@H](CCC(N)=O)C(=O)N[C@@H](CCC(=O)O)C(=O)N[C@@H](CCCNC(=N)N)C(=O)N[C@@H](CCC(N)=O)C(=O)N[C@@H](CCCNC(=N)N)C(=O)N[C@@H](CCCCN)C(=O)N[C@@H](CCC(=O)O)C(=O)N[C@@H](CCCNC(=N)N)C(=O)N[C@@H](CCC(=O)O)C(=O)N[C@@H](CCC(N)=O)C(=O)N[C@@H](C)C(=O)N[C@@H](CCC(=O)O)C(=O)N[C@@H](CCCCN)C(=O)N[C@@H](CC(N)=O)C(=O)NC(C)(C)C(=O)N[C@@H](CCCNC(=N)N)C(=O)N[C@H](C(=O)N[C@@H](CC(C)C)C(=O)N[C@@H](CCC(=O)O)C(=O)N[C@@H](CCCNC(=N)N)C(=O)N[C@H](C(N)=O)C(C)C)[C@@H](C)CC)C(=O)O
# B5: SEQ ID NO: 30 (peptide)
# peptide: IVLSLD[dV]PTKLK([γGlu-Palmitoyl])KKLLKQERKRKEREQAEKAARILERV-NH2
# modifications: N-terminus assumed
# SMILES: CCCCCCCCCCCCCCCC(=O)N[C@@H](CCC(=O)NCCCC[C@H](NC(=O)[C@H](CC(C)C)NC(=O)[C@H](CCCCN)NC(=O)[C@@H](NC(=O)[C@@H]1CCCN1C(=O)[C@H](NC(=O)[C@H](CC(=O)O)NC(=O)[C@H](CC(C)C)NC(=O)[C@H](CO)NC(=O)[C@H](CC(C)C)NC(=O)[C@@H](NC(=O)[C@@H](N)[C@@H](C)CC)C(C)C)C(C)C)[C@@H](C)O)C(=O)N[C@@H](CCCCN)C(=O)N[C@@H](CCCCN)C(=O)N[C@@H](CC(C)C)C(=O)N[C@@H](CC(C)C)C(=O)N[C@@H](CCCCN)C(=O)N[C@@H](CCC(N)=O)C(=O)N[C@@H](CCC(=O)O)C(=O)N[C@@H](CCCNC(=N)N)C(=O)N[C@@H](CCCCN)C(=O)N[C@@H](CCCNC(=N)N)C(=O)N[C@@H](CCCCN)C(=O)N[C@@H](CCC(=O)O)C(=O)N[C@@H](CCCNC(=N)N)C(=O)N[C@@H](CCC(=O)O)C(=O)N[C@@H](CCC(N)=O)C(=O)N[C@@H](C)C(=O)N[C@@H](CCC(=O)O)C(=O)N[C@@H](CCCCN)C(=O)N[C@@H](C)C(=O)N[C@@H](C)C(=O)N[C@@H](CCCNC(=N)N)C(=O)N[C@H](C(=O)N[C@@H](CC(C)C)C(=O)N[C@@H](CCC(=O)O)C(=O)N[C@@H](CCCNC(=N)N)C(=O)N[C@H](C(N)=O)C(C)C)[C@@H](C)CC)C(=O)O
# B6: SEQ ID NO: 34 (peptide)
# peptide: FTLSLDVPTKIK([AEEA-AEEA-γGlu-C18 diacid])QKLLKQEKQKKQRQKAKTNKQILEQV-NH2
# modifications: N-terminus assumed
# SMILES: CC[C@H](C)[C@H](NC(=O)[C@H](CCC(N)=O)NC(=O)[C@H](CCCCN)NC(=O)[C@H](CC(N)=O)NC(=O)[C@@H](NC(=O)[C@H](CCCCN)NC(=O)[C@H](C)NC(=O)[C@H](CCCCN)NC(=O)[C@H](CCC(N)=O)NC(=O)[C@H](CCCNC(=N)N)NC(=O)[C@H](CCC(N)=O)NC(=O)[C@H](CCCCN)NC(=O)[C@H](CCCCN)NC(=O)[C@H](CCC(N)=O)NC(=O)[C@H](CCCCN)NC(=O)[C@H](CCC(=O)O)NC(=O)[C@H](CCC(N)=O)NC(=O)[C@H](CCCCN)NC(=O)[C@H](CC(C)C)NC(=O)[C@H](CC(C)C)NC(=O)[C@H](CCCCN)NC(=O)[C@H](CCC(N)=O)NC(=O)[C@H](CCCCNC(=O)COCCOCCNC(=O)COCCOCCNC(=O)CC[C@H](NC(=O)CCCCCCCCCCCCCCCCC(=O)O)C(=O)O)NC(=O)[C@@H](NC(=O)[C@H](CCCCN)NC(=O)[C@@H](NC(=O)[C@@H]1CCCN1C(=O)[C@@H](NC(=O)[C@H](CC(=O)O)NC(=O)[C@H](CC(C)C)NC(=O)[C@H](CO)NC(=O)[C@H](CC(C)C)NC(=O)[C@@H](NC(=O)[C@@H](N)Cc1ccccc1)[C@@H](C)O)C(C)C)[C@@H](C)O)[C@@H](C)CC)[C@@H](C)O)C(=O)N[C@@H](CC(C)C)C(=O)N[C@@H](CCC(=O)O)C(=O)N[C@@H](CCC(N)=O)C(=O)N[C@H](C(N)=O)C(C)C
# Target: human corticotropin-releasing factor 2α (CRF2 α receptor) (human), Q13324
# Assay: cell-based or functional assay
# Sequence of human corticotropin-releasing factor 2α (CRF2 α receptor) (human), Q13324 (Q13324 20-411): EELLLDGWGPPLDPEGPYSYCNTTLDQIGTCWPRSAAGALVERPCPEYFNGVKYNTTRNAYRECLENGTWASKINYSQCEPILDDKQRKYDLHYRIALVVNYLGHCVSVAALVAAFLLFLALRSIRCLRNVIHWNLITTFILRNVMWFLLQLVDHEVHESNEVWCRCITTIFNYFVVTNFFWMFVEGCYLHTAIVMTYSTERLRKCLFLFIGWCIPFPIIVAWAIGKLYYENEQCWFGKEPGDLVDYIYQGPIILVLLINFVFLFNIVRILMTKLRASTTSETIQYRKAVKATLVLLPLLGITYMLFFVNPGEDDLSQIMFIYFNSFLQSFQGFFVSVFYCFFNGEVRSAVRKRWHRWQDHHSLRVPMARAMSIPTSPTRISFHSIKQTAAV
row,"EC50 [nM], 0% HSA [nM]",Binder
1,0.2,B1
2,0.12,B2
3,0.14,B3
4,0.01,B4
5,0.01,IVLSLD[dV]PTKLK([γGlu-Palmitoyl])QKLLKQERQRKEREQAEKNVRILERV-NH2 [SEQ ID NO: 32]
6,0.16,B5
7,6.88,B6
